Consider three molecules from patent US20180312587A1 (ADURO BIOTECH HOLDINGS EUROPE B V, published 2018).

The target of assay [1] is T1, human SIRPα variant 1 (human, UniProt P78324 31-504).
T1 construct: full length ORF on transfected CHO-K1 or HEK293 cells; entry includes the signal peptide; also called hSIRPαV1; SIRPαV1
Briefly: CELISA, CHO-K1 transfectants. The method, then: (§1) Reactivity was confirmed using CHO-K1 cells (ATCC CCL-61) expressing a cDNA encoding the full length open reading frame of hSIRPαV1, hSIRPαV1(P74A), hSIRPαV2, and hSIRPβ1 subcloned into the pCI-neo vector (Promega, Madison, Wis.). CHO-K1.hSIRPαV1, CHO-K1.hSIRPαV1(P74A), CHO-K1.hSIRPαV2, and CHO-K1.hSIRPβ1 cells were seeded in culture medium (DMEM-F12 (Gibco) supplemented with 5% New Born Calf Serum (BioWest) and Pen/Strep (Gibco)) in 96-well flat-bottom tissue culture plates and incubated at 37° C., 5% CO₂ and 95% humidity for 24 hours. Subsequently, culture medium was removed and cells were incubated for 1 hour at 37° C., 5% CO₂ and 95% humidity with purified hSIRPα antibodies (used at 10 μg/mL and dilutions thereof). Next, cells were washed with PBS-T and incubated for 1 hour at 37° C., 5% CO₂ and 95% humidity with goat-anti-mouse IgG-HRP (Southern Biotech). Subsequently, cells were washed three times with PBS-T and immunoreactivity against hSIRPαV1, hSIRPαV1(P74A), hSIRPαV2, and hSIRPβ1 was visualized with TMB Stabilized Chromogen (Invitrogen). Reactions were stopped with 0.5 M H₂SO₄ and absorbances were read at 450 and 610 nm.

For assay [2], the target named is T2, human SIRPα variant 2 (human, UniProt P78324 31-504).
T2 construct: full length ORF on transfected CHO-K1 cells; also called hSIRPαV2; SIRPαV2
T2 sequence (P78324 other isoform, or with tags, fused parts or gaps mutant limits assumed): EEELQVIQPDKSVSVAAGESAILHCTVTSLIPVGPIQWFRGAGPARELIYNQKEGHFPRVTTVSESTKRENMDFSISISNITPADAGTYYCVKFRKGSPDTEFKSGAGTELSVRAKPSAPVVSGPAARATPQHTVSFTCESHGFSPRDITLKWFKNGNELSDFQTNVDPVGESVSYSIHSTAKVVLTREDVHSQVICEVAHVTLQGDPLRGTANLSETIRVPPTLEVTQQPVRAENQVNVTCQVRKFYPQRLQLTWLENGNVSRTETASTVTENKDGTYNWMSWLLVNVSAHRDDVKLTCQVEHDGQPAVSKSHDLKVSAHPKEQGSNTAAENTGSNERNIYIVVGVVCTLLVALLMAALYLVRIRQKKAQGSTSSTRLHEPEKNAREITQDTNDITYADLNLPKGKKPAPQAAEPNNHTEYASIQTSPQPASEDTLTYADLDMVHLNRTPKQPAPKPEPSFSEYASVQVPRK
Briefly: CELISA, CHO-K1 transfectants. As to the method: as §1

The target of assay [3] is T1, human SIRPα variant 1. Briefly: CELISA, CHO-K1 transfectants. The method, then: The specificity of monoclonal anti-hSIRPα antibodies (e.g., including the hSIRPα antibodies known in the art, KWAR23 ([…]. Patent CA2939293 A1), 18D5 (Patent WO2017/178653 A2), and various commercially available hSIRPα antibodies) for binding to hSIRPαV1, hSIRPαV1(P74A), and hSIRPβ1 was evaluated by CELISA. Reactivity was confirmed using CHO-K1 cells (ATCC CCL-61) expressing a cDNA encoding the full length open reading frame of hSIRPαV1, hSIRPαV1(P74A), and hSIRPβ1 subcloned into the pCI-neo vector (Promega, Madison, Wis.). CHO-K1.hSIRPαV1, CHO-K1.hSIRPαV1(P74A), and CHO-K1.hSIRPβ1 cells were seeded in culture medium (DMEM-F12 (Gibco) supplemented with 5% New Born Calf Serum (BioWest) and Pen/Strep (Gibco)) in 96-well flat-bottom tissue culture plates and incubated at 37° C., 5% CO₂ and 95% humidity for 24 hours. Subsequently, culture medium was removed and cells were incubated for 1 hour at 37° C., 5% CO₂ and 95% humidity with purified hSIRPα antibodies (used at 10 μg/ml and dilutions thereof). Next, cells were washed with PBS-T and incubated for 1 hour at 37° C., 5% CO₂ and 95% humidity with either goat-anti-mouse IgG-HRP (Southern Biotech), goat-anti-human IgG-HRP (Jackson Immuno Research), or goat-anti-rabbit IgG-HRP (Southern Biotech). Subsequently, cells were washed three times with PBS-T and immunoreactivity against hSIRPαV1, hSIRPαV1(P74A), and hSIRPβ1 was visualized with TMB Stabilized Chromogen (Invitrogen). Reactions were stopped with 0.5 M H₂SO₄ and absorbances were read at 450 and 610 nm.
This is another data set of the same source.

Assay [4] has as its target T1, human SIRPα variant 1. Description: flow cytometry, blockade of DyLight488-hCD47/Fc binding to U-937 cells. In outline: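 THP-1 or U-937 monocyte cells were placed in 96-well round-bottom plates and incubated at 4 °C for 45 minutes in PBS/1% BSA containing FcR Blocking Reagent and a dilution series of anti-SIRPα antibody. After a further wash, cells were resuspended with 0.1 μg/mL DAPI, read by flow cytometry and analyzed in FlowJo. IC50 is defined as the antibody concentration that gives half-maximal inhibition of CD47/Fc binding.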
A general note: Flow cytometry measures light scatter and fluorescence of single cells or particles in a stream.

Another assay addresses T3, hSIRPαV3 (NA07056_V3) (human, UniProt P78324 31-504).
T3 construct: also called human SIRPαV3
Description: CELISA, CHO-K1 transfectants. The method, then:
(§2) The binding specificity of antibodies hSIRPα.40A and hSIRPα.50A to hSIRPα were compared in a CELISA format. In short, CHO-K1 cells were transiently transfected with hSIRPαV1, hSIRPαV2, hSIRPβ1, hSIRPβL, and hSIRPγ cDNAs. Subsequently, hSIRPα binding was assessed by CELISA using CHO-K1.hSIRPαV1, CHO-K1.hSIRPαV2, CHO-K1.hSIRPβ1, CHO-K1.hSIRPβL, and CHO-K1.hSIRPγ cells. Detection of bound antibody was done with goat-anti-mouse IgG-HRP (Southern Biotech).
(§3) In addition, the specificity of hSIRPα.40A for all known of hSIRPα alleles (allelic variants as described by Takenaka et al., Nat Immunol. 8:1313-1323 (2007) was further investigated by CELISA using the same strategy as above. To this end, hSIRPα.40A binding was assessed using CHO-K1 cells that were transiently transfected with cDNAs encoding full length hSIRPαV1, hSIRPαV2, hSIRPαV3 (NA07056_V3) (SEQ ID NO: 44), hSIRPαV4 (NA11832_V4) (SEQ ID NO: 46), hSIRPαV5 (NA18502_V5) (SEQ ID NO: 48), hSIRPαV6 (NA18507_V6) (SEQ ID NO: 50), hSIRPαV8 (NA18570_V8) (SEQ ID NO: 52), and hSIRPαV9 (NA18943_V9) (SEQ ID NO: 54).

In a further assay the target is T4, hSIRPαV8 (NA18570_V8) (human, UniProt P78324 31-504).
T4 construct: also called human SIRPαV8
Briefly: CELISA, CHO-K1 transfectants. The method, then:
as §2, §3

Assay [5] concerns the target T1, human SIRPα variant 1. Briefly: CELISA, CHO-K1 transfectants; average of two experiments. The method, then:
as §2

The target in assay [6] is T2, human SIRPα variant 2. The assay is described as above. The method, then: as §2
For another assay, the target named is T5, human SIRPγ (human, UniProt Q9P1W8 29-387).
T5 construct: on transfected CHO-K1 cells; also called hSIRPγ
T5 sequence (Q9P1W8 29-387 limits assumed): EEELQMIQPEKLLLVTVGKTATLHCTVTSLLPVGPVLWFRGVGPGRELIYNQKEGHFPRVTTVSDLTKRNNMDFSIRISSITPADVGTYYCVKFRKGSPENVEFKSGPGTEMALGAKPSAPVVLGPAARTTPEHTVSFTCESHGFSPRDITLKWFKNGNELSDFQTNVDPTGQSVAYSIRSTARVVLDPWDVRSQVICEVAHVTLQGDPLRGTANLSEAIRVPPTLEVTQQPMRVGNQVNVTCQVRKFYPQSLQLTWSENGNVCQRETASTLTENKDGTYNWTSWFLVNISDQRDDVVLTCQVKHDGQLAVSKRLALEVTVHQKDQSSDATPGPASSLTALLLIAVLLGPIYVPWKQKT
The description is as above. As to the method:
as §2

T1 sequence (P78324 31-504 limits assumed, change not shown): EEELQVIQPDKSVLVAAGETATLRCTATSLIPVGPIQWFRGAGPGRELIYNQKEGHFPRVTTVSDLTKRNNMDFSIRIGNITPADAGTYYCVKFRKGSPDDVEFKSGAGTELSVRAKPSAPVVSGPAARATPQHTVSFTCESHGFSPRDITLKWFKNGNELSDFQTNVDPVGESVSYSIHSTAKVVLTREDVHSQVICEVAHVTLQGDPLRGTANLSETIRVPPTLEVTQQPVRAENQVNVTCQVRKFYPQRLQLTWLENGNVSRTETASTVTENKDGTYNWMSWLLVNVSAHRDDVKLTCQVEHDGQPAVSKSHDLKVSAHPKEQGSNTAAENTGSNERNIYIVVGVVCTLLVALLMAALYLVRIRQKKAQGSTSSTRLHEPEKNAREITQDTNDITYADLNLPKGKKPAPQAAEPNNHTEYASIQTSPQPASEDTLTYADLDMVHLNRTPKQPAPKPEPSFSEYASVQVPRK

B1: hSIRPα.40A (antibody, mouse IgG1, kappa, V domains shown)
VH: EVQFQQSGTVLARPGTSVKMSCKASGSTFTSYWMHWVKQGPGQGLQWIGAIYPVNNDTTYNQKFKGKAELTVVTSTSTAYMEVSSLTNEDSAVYYCTRSFYYSLDAAWFVYWGQGTLVTVSA
VL: DIQMTQSPSSLSASLGERVSLTCRASQDIGSRLNWLQQEPDGTIKRLIYATSSLDSGVPKRFSGSRSGSDYSLTISGLESEDFVDYYCLQYASSPFTFGGGTKLEINR
notes: mouse antibody, full chains without signal peptide; also called mouse hSIRPα.40A
B1: the EC50 in the assay with human SIRPα variant 1 [1] was determined as 114 pM; in the assay with human SIRPα variant 2 [2], 93 pM; in the assay with human SIRPα variant 1 [3] it was 53 pM; with hSIRPαV3 (NA07056_V3), 107 pM; with hSIRPαV8 (NA18570_V8), 89 pM; with human SIRPα variant 1 [5], 109 pM. In addition, the EC50 stood at 88 pM with human SIRPα variant 2 [6] and 99 pM with human SIRPγ. The IC50 with human SIRPα variant 1 [4] was determined as 1340 pM.

B2: hSIRPα.50A (antibody, V domains shown)
VH: QVQLQQSGPELVKPGASVRISCKASGFTFTNYYIHWVKQRPGQGLEWIGWIYPGNVNTKYNEKFKAKATLTADKSSTTAYMQLSSLASEDSAVYFCARPTIIATDFDVWGAGTTVTVSS
VL: DIVMTQSHKFMSTSVGDRVNITCKASQGVGTAVGWYQQKPGQSPRLLIYWASTRHTGVPDRFTGSGSGTDFSLAISNVQSEDLADYFCQQYSTYPFTFGGGTNLEIK
notes: light chain constant domain not tied; also called mouse hSIRPα.50A; hSIRPα.50A.mIgG1
As for B2, the EC50 in the assay with human SIRPα variant 1 [1] was 773 pM; with human SIRPα variant 2 [2], 645 pM; in the assay with human SIRPα variant 1 [3] it was 307 pM; in the assay with hSIRPαV3 (NA07056_V3), 1770 pM; with hSIRPαV8 (NA18570_V8) it was 1510 pM; in the assay with human SIRPα variant 1 [5], 1430 pM. Also, the EC50 with human SIRPα variant 2 [6] came out at 1160 pM; with human SIRPγ it was 1990 pM. Besides, in the assay with human SIRPα variant 1 [4], the concentration for half-maximal inhibition (IC50) is 19500 pM.

B3: KWAR23 (antibody, V domains shown)
VH: EVQLQQSGAELVKPGASVKLSCTASGFNIKDYYIHWVQQRTEQGLEWIGRIDPEDGETKYAPKFQDKATITADTSSNTAYLHLSSLTSEDTAVYYCARWGAYWGQGTLVTVSS
VL: QIVLTQSPAIMSASPGEKVTLTCSASSSVSSSYLYWYQQKPGSSPKLWIYSTSNLASGVPARFSGSGSGTSYSLTISSMEAEDAASYFCHQWSSYPRTFGAGTKLELK
As to B3, the values for the EC50 with human SIRPα variant 1 [1], with human SIRPα variant 2 [2] and with human SIRPα variant 1 [3] were 70 pM, 49 pM and 135 pM, respectively.

One may read the EC50 as the concentration giving half of the maximal effect. Low values mean greater potency, high ones weaker potency. For orientation: IC50 means the concentration that inhibits the measured activity by half. A low value points to greater potency in that assay.
